Assay results published in patent publication US6353089B1, “Method for stimulating CTLs with peptides” (Ludwig Institute for Cancer Research, priority 1994, dated 2002).

Tests used:
HLA-A2 molecules = target: T1, HLA-A2 molecules (Homo sapiens, UniProt P04439, D140Y/D185E/D98H/E176V/E277Q/G131W/G231S/I119V/I121R/I166T/I218V/L300P/L318F/N151K/N90K/P208A/P217A/Q86G/Q94H/R138H/R169H/T345S); assay: HLA-A2 binding (stabilization) assay on T2 cells, mean fluorescence ratio; details: peptide 0.1 mM
T1 construct: endogenous in cells; host or cells: 174 CEM.T2 (T2) cells
From the text: To determine whether or not peptides bound to HLA-A2 molecules, cell line 174 CEM.T2 (hereafter “T2”) was used. This cell line is described by Cerundolo et al., Nature 345: 449-452 (1990), and Spies et al., Nature 348: 744-747 (1990), the disclosures of which are incorporated by reference. This is a cell line deficient in the pathway which supplies peptides to the endoplasmic reticulum, the site of assembly of MHC class I heterodimers. It can assemble MHC class-I molecules, but these are unstable, and, on cell lysis, dissociate into free heavy and light chains during overnight incubation. The heterodimers can, however, be stabilized in vitro via addition of appropriate peptide ligands, as per Townsend et al., Nature 340: 443-448 (1989); Townsend et al., Cell 62: […] (1990); Cerundolo et al., supra; Schumacher et al., Nature 350: 703-706 (1991); Elliot et al., Nature 351: 402-406 (1991); Elvin et al., Eur. J. Immunol. 21 : 2025-2031 (1991). The thus stabilized molecules can be immunoprecipitated with antibodies specific for the MHC class-I molecule.
In light of this background, the T2 cells were washed in serum free IMDM medium, and then 1.0×10^6 cells were suspended in 400 ul of the serum free IMDM medium, together with 100 ul synthetic peptide (final concentration: 0.1 mM, 1% DMSO). The mixture was incubated, overnight, at 37° C. Following incubation, the cells were washed and stained, successively, with HLA-A2 specific monoclonal antibody BB7.2, and FITC labelled, binding fragments of polyclonal goat anti-mouse IgG. Fluorescence ratio was calculated by the following formula: [formula]
This yielded the “mean fluorescence ratio” or MFR. In accordance with Nijman et al, supra, an MFR greater than 1.5 indicates binding to HLA-A2.

T2 cells = assay: chromium release assay with CTL 4.2, T2 target cells; assay type: cell-based; details: for % 51CR Release: T2 + peptide
Procedure: The CTL clone was obtained using T2 cells, in accordance with Houbiers et al., Eur. J. Immunol. 23: 2072 (1993), previously incorporated by reference in its entirety.
Once the CTL clone was isolated, it was used in a chromium release assay in accordance with Boon, et al., J. Exp. Med. 152: 1184 (1980) the disclosure of which is incorporated by reference in its entirety. In addition to T2, cell line SK23, which is an HLA-A2 presenting line, was tested. The results are presented below:
Effector Cell (E): CTL 4.2 Target (T): HLA-A2 cell plus SEQ ID NO: 4

[1] = overnight 37° C., BB7.2 staining, MFR greater than 1.5 indicates binding to HLA-A2

Sequence: ALSRKVAEL [Peptide M3-108.116, MAGE-3 derived peptide]
- MFR (mean fluorescence ratio) (HLA-A2 molecules; in some of the experimental runs): < 1.5)
- MFR (mean fluorescence ratio) (HLA-A2 molecules; [1]): 2.17 (and, less than

Sequence: ALVETSYVKV [Peptide M3-277.286, MAGE-3 derived peptide]
- MFR (mean fluorescence ratio) (HLA-A2 molecules; [1]): 1.8 (and, less than

Sequence: IMPKAGLLI [Peptide M3-195.203]
- MFR (mean fluorescence ratio) (HLA-A2 molecules; [1]): 2.37

Sequence: KIWEELSVL [Peptide M3-220.228]
- % 51CR Release (T2 cells; effector CTL 4.2, E/T ratio 0.5): 57%
- % 51CR Release (T2 cells; effector CTL 4.2, E/T ratio 1.9): 84%
- % 51CR Release (T2 cells; effector CTL 4.2, E/T ratio 7.5): 88%
- % 51CR Release (T2 cells; effector CTL 4.2, E/T ratio 30): 91%
- lysis of peptide-pulsed target cells by cytolytic T cell clone 4.2 (T2 cells; target cells (T2, SK23) pulsed with peptide, no lysis in the absence of the peptide): specifically lysed

Sequence: TLVEVTLGEV [Peptide M3-44.53]
- MFR (mean fluorescence ratio) (HLA-A2 molecules; [1]): 3.5
